{"source": "FireProtDB (doi:10.1021/bi027202n)", "proteins": {"B1": {"name": "Large ribosomal subunit protein bL9 wild type, P02417 (protein)", "chain": "MKVIFLKDVKGKGKKGEIKNVADGYANNFLFKQGLAIEATPANLKALEAQKQKEQRQAAEELANAKKLKEQLEKLTVTIPAKAGEGGRLFGSITSKQIAESLQAQHGLKLDKRKIELADAIRALGYTNVPVKLHPEVTATLKVHVTEQK"}}, "settings": "Geobacillus stearothermophilus, pH 5.4, CD, sodium phosphate 10 mM, reversible: yes(>90%), whole UniProt chain shown; for denaturant m value / denaturant midpoint (higher = more stable) / unfolding free energy: 25 °C, Urea", "note": "Where “and” joins values, the source holds several entries; their conditions need not be identical. Equal values may be shown once.", "data": [{"protein": "B1", "values": [{"measurement": "denaturant m value", "setting": "sodium chloride 100 mM", "value": "0.72 kcal/mol/M and 0.64 kcal/mol/M"}, {"measurement": "denaturant midpoint (higher = more stable)", "setting": "sodium chloride 100 mM", "value": "6.18 M and 3.16 M"}, {"measurement": "unfolding free energy", "setting": "sodium chloride 100 mM", "value": "4.45 kcal/mol and 2.02 kcal/mol"}, {"measurement": "denaturant m value", "setting": "sodium chloride 750 mM", "value": "0.62 kcal/mol/M and 0.66 kcal/mol/M"}, {"measurement": "denaturant midpoint (higher = more stable)", "setting": "sodium chloride 750 mM", "value": "7.76 M and 3.64 M"}, {"measurement": "unfolding free energy", "setting": "sodium chloride 750 mM", "value": "4.81 kcal/mol and 2.4 kcal/mol"}, {"measurement": "Tm", "setting": "Thermal, sodium chloride 100 mM", "value": 56, "unit": "°C"}]}]}
